In patent US20160011195A1:

Legend:
[1] = molecular target: PLK1 PBD protein (residues 367-603) (human) (UniProt P53350); assay: competitive FP, displacement of fluorescein tracer SEQ ID NO: 7 from PLK1 PBD (367-603)
[2] = molecular target: PLK1 PBD protein (residues 367-603) (human) (UniProt P53350); assay: competitive FP
[3] = molecular target: PLK1 326-603 (longer PBD construct) (human) (UniProt P53350); assay: competitive FP, displacement of fluorescent tracer peptide from PLK1 326-603
Sequence of PLK1 326-603 (longer PBD construct) (human) (P53350 326-603 limits assumed): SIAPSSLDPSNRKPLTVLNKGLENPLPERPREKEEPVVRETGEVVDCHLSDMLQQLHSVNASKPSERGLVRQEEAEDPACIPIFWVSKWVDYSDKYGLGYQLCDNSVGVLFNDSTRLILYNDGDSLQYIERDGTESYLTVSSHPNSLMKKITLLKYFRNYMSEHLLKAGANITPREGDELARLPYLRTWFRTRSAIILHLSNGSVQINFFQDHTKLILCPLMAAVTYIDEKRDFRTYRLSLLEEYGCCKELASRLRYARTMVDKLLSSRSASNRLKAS

Sequence of PLK1 PBD protein (residues 367-603) (human) (P53350 367-603 limits assumed): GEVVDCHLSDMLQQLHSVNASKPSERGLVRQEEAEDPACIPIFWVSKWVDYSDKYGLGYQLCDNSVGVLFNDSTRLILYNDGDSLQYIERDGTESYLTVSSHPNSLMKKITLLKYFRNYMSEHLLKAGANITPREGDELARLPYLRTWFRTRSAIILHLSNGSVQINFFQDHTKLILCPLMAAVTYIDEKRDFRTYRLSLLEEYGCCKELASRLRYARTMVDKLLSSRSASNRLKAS

| Substance | IC50 [1] | other results |
| --- | --- | --- |
| 3G2-S[pT]PNGL (4-butylbenzoic acid) (Sample No. 5827) (peptide) | 8.6 µM |  |
| Ac-LHS[pT]AI (sample no. 5781) (peptide) | 5 µM | fold less potent than the parent peptide containing the N-terminal LLC [2]: 6 fold; fold more potent than the non-acetylated version (sample no. 5649) [2]: 40 fold |
| Ac-PLHS[pT]A (sample no. 5743) (peptide) | 2 µM |  |
| LLCS[pT]PNGL, native phospho-CDC25c PBD binding sequence (sample no. 292) (peptide) | 0.42 µM | IC50 [3]: 1.3 µM |

Now from value to substance, other results behind:

| IC50 [1] | Substance | other results |
| --- | --- | --- |
| 16.5 µM | 3G1-S[pT]PNGL (4-ethylbenzoic acid) (Sample No. 5788) (peptide) |  |
| 15 µM | Ac-AHS[pT]AI (sample no. 5782) (peptide) | fold higher IC50 (against Ac-LHS[pT]AI, sample no. 5781) [2]: 3 fold |
| 0.5 µM | Ac-LLCS[pT]PNGL (sample no. 5821) (peptide) |  |
| 3 µM | LDCS[pT]PNGL (sample no. 5795) (peptide) |  |
| 200 µM | LHS[pT]AI (sample no. 5649) (peptide) |  |
| > 600 µM | S[pT]PNGL (sample no. 5714) (peptide) |  |
